# Laboratory results: article PMC6179186, “Novel RNA aptamers targeting gastrointestinal cancer biomarkers CEA, CA50 and CA72-4 with superior affinity and specificity”
# Key:
# [1] = tested on: CA50 (cancer antigen 50) (human); test: fluorescence titration; details: 5 mM MgCl2; yeast tRNA competitor 1 ug/ul; RSB-100: 10 mM Tris-HCl pH 7.5, 5 mM MgCl2, 100 mM NaCl, 0.01% NP-40, yeast tRNA 1 ug/ul, room temperature, 10 min; 1 pmol RNA, antigen 0-200 nM
# [2] = tested on: CA72-4 (cancer antigen 72-4) (human); test: fluorescence titration; details: 5 mM MgCl2; yeast tRNA competitor 1 ug/ul; RSB-100: 10 mM Tris-HCl pH 7.5, 5 mM MgCl2, 100 mM NaCl, 0.01% NP-40, yeast tRNA 1 ug/ul, room temperature, 10 min; 1 pmol RNA, antigen 0-200 nM
# [3] = molecular target: CEA (carcinoembryonic antigen) (human, UniProt P06731 35-685); test: fluorescence titration; 5 mM MgCl2; yeast tRNA competitor 1 ug/ul; RSB-100: 10 mM Tris-HCl pH 7.5, 5 mM MgCl2, 100 mM NaCl, 0.01% NP-40, yeast tRNA 1 ug/ul, room temperature, 10 min; 1 pmol RNA, antigen 0-200 nM; details: protein: commercial; label: Alexa Fluor 488 (ULS); mfold-predicted secondary structure
# Chain of CEA (carcinoembryonic antigen) (P06731 35-685): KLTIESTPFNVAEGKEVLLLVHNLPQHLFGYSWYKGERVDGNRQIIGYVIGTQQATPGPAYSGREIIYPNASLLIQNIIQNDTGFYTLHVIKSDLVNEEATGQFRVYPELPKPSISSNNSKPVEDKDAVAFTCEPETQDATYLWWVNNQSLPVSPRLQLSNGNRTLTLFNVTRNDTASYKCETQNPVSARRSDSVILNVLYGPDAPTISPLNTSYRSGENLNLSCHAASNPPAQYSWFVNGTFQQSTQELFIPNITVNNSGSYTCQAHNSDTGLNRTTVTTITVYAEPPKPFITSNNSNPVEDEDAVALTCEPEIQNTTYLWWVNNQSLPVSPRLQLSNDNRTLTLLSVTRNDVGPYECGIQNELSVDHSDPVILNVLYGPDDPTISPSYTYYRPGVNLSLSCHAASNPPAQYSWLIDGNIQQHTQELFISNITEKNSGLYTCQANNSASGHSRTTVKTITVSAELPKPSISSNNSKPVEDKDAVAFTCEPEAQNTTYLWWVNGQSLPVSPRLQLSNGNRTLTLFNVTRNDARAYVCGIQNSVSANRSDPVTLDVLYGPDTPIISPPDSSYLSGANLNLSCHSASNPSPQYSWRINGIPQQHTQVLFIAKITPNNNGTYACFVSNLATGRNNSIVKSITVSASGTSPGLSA
Molecule,Kd [1],Kd [2],other results
GGGUCGUGUCGGAUCCAGCUCGAAAGUGGGCUGGCGAUGUGUCCCGAAGCUUCUAAGGUAACGAU [CA50 A02],30.7 nM,–,–
GGGUCGUGUCGGAUCCCCCAAAAAGGAUUGGGGCGUCUGCAUGACCAAGCUUCUAAGGUAACGAU [CA72-4 A02],–,71.2 nM,–
GGGUCGUGUCGGAUCCGUGAGUUUUUCGCGGCGAAGACAAGGCUCGAAGCUUCUAAGGUAACGAU [CA50 A01],38 nM,–,–
GGGUCGUGUCGGAUCCUGCGAAGGGGGGCAGAGGUUUGACGCGAGAAAGCUUCUAAGGUAACGAU [CA72-4 A01],–,52.7 nM,–
CEA A02 (structured_RNA) RNA: GGGUCGUGUCGGAUCCAACGGCAUGACCUAACCUGGAGGCGCAUCAAAGCUUCUAAGGUAACGAU,–,–,Kd [3]: 156 nM
